Measured values: the supplement of paper PMC6755084

B1: minF1; the commonest letter at each place (parent)
chain: GAGACCGCAACTGAAAAGTTGTTATCAGAAATGGATGGGTTGAATTTCTGCACGTAGAAGCAAAAGGC

Variants of: B1
Assay: fraction ligated after 30 min (ligated reads / total reads); higher = more ligase activity
Conditions: with F1*subA RNA substrate (template-directed ligation), 42 °C
Procedure, shortened: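 Fraction ligated for every variant was calculated as the share of total reads that came from ligated RNA. Minimized ligase ribozyme variants were made from oligo-pool templates by PCR amplification, T7 transcription and gel purification. After gel separation of ligated and unligated RNAs, reverse transcription with barcoded primers and MiSeq sequencing followed. Only core bases at quality ≥30 passed filtering.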

Variant | fraction ligated
A30C A43T | 0.0731
A30C A43G | 0.0454
G28T G34A | 0.141
G28T G34C | 0.00596
G28T G34T | 0.00519
A30T T36G | 0.0328
A30T T36A | 0.0264
A30T T36C | 0.0213
G28T G33C | 0.764
G28T G33T | 0.725
G28T G33A | 0.814
A30T A31C | 0.801
A30T A31G | 0.785
A30T A31T | 0.818
G28C T32A | 0.0353
G28C T32C | 0.0192
G28C T32G | 0.0241
G28T G42C | 0.017
G28T G42A | 0.359
G28T G42T | 0.142
A31T G33C | 0.689
A31T G33T | 0.467
A31T G33A | 0.755
G28C G42A | 0.264

Variant | fraction ligated
G28C G42C | 0.0102
G28C G42T | 0.0849
A29G A31G | 0.795
A29G A31T | 0.812
A29G A31C | 0.803
A29G G33A | 0.8
A29G G33T | 0.516
A29G G33C | 0.709
A31T T32C | 0.0483
A31T T32G | 0.0242
A31T T32A | 0.0898
A31G G37A | 0.00669
A31G G37T | 0.0111
A31G G37C | 0.00462
G28T | 0.806
A29G T36A | 0.0285
A29G T36G | 0.0397
A29G T36C | 0.0189
A30C A31G | 0.806
A30C A31C | 0.714
A30C A31T | 0.771
T32A A44C | 0.0377
A30T G34T | 0.00578
A30T G34C | 0.00584

Variant | fraction ligated
A30T G34A | 0.0989
A30T A44T | 0.693
A30T A44G | 0.68
A30T A44C | 0.52
A30T A43C | 0.0532
A30T A43G | 0.0459
A30T A43T | 0.0685
G28T A31G | 0.82
G28T A31T | 0.827
G28T A31C | 0.82
A31T A44C | 0.745
A31T A44G | 0.82
A31T A44T | 0.814
A29G A30C | 0.84
A29G A30T | 0.817
A29G A30G | 0.811
A30C G33C | 0.684
A30C G33T | 0.435
A30C G33A | 0.773
A30C A35C | 0.00575
A30C A35T | 0.01
A30C A35G | 0.159
A31T A35T | 0.0356
A31T A35C | 0.0159

Variant | fraction ligated
A31T A35G | 0.339
A29C A31T | 0.842
A29C A31G | 0.808
A29C A31C | 0.791
A31G G33A | 0.811
A31G G33T | 0.567
A31G G33C | 0.765
A30G A44C | 0.735
A30G A44T | 0.809
A30G A44G | 0.833
A29C A30C | 0.563
A29C A30G | 0.827
A29C A30T | 0.81
A30G G37C | 0.00443
A30G G37A | 0.00857
A30G G37T | 0.0167
A30G A31C | 0.777
A30G A31T | 0.836
A30G A31G | 0.84
G28C G37T | 0.0184
G28T T36G | 0.0726
G28T T36A | 0.0434
G28T T36C | 0.0288
A29T A35G | 0.153

Variant | fraction ligated
A29T A35T | 0.0234
A29T A35C | 0.00991
T32A A35T | 0.00186
T32A A35C | 0.00546
T32A A35G | 0.0076
A29G G34C | 0.00249
A29G G34T | 0.00809
A29G G34A | 0.0509
G28T A29G | 0.832
G28T A29C | 0.784
G28T A29T | 0.829
A30G T36A | 0.0286
A30G T36G | 0.0634
A30G T36C | 0.0152
A31C G37C | 0.00598
A31C G37A | 0.0105
A31C G37T | 0.0153
A31C A35C | 0.0149
A31C A35G | 0.199
A31C A35T | 0.0132
A29G G37T | 0.0206
A29G G37C | 0.0058
A29G G37A | 0.0118
A29C T36G | 0.0261

Variant | fraction ligated
A29C T36C | 0.0172
A29C T36A | 0.0288
A31C G34C | 0.0027
A31C G34A | 0.055
A31C G34T | 0.00764
A29T A43C | 0.065
A29T A43T | 0.0859
A29T A43G | 0.0507
A30T T32G | 0.0154
A30T T32C | 0.0167
A30T T32A | 0.0346
G28T A35G | 0.437
G28T A35C | 0.0723
G28T A35T | 0.051
A30C G34A | 0.0885
A30C G34C | 0.00405
A30C G34T | 0.00409
A30G G42A | 0.487
A30G G42C | 0.0189
A30G G42T | 0.215
A29T G37T | 0.027
A29T G37C | 0.00775
A29T G37A | 0.00694
A29T T36C | 0.0219

Variant | fraction ligated
A29T T36G | 0.0504
A29T T36A | 0.0343
A31C T32C | 0.0181
A31C T32A | 0.0431
A31C T32G | 0.0132
A29T G42T | 0.0835
A29T G42A | 0.269
A29T G42C | 0.00612
A30C G37C | 0.00447
A30C G37T | 0.01
A30C G37A | 0.009
A29C G42C | 0.00616
A29C G42A | 0.283
A29C G42T | 0.0826
A30T A35G | 0.161
A30T A35T | 0.0204
A30T A35C | 0.0121
A30C G42C | 0.00724
A30C G42T | 0.0701
A30C G42A | 0.217
G28T T32G | 0.0263
G28T T32A | 0.0381
G28T T32C | 0.0326
